{"source": "paper PMC11850899", "about": "(Communications Biology, 2025)", "proteins": {"B1": {"name": "Bacillus subtilis DSR2 (defense-associated sirtuin 2), wild type (enzyme)", "chain": "MVKVDLESKRYGEKLKEVFLMLDNNVVECIKEITESSRNGKLVFFVGAGVSTLSDYPQWWRLVDKYHEELYGSPKKGNYSSDEYLRIPQIFYNVKGEMAFDGILKDFFQVDKPTNPIHDKILAMNPAHVITTNYDNLIDTACWKRGKYFSVISAEEDVANATSSRYLLKVHGDFRKGFKGENVVLKEDDYLNYDQNYPLISNLMKTIIATHTIVFIGYGLGDYNINMLLNWVRKLQKDSFHKPFFIRTDPSPIENETLIYYENKGLRIIDAASLIDSNEYDYLERYSAVMDLLIESQENKFITKDDEVIDYIYGKISPLFALQYIRKIDLKHVFEYDYHFEVNGTVVRHKNKGFGYMERFFELKESCDERSKLSKKQYERFNALFNFFEKNGVICMAKDAGTLNTSIEINSLAYHGKYDVMKKFIEEQSVSIEDDYKKAFFLACLGRWEESYDLYSNIILNSIDESNGCVYYLSQINRYRIYQSITQAVTQFNGLGLLTFGRHYKPFTDEFLARIEREMTNFNIDDLFNGMPFEFQKKYKILEFLSDNQFLYDDTVKLFELTNKVRSEMSEGSYSFGMSSDIVVLLRLYDNLRFLYENCLWSVSFHEFHQYIRNSMSLLIEKAEYERTRDIDELGFSFFGKKSGFFMEYYDFVNISRHFKIDDIKNLERSCSIDKIRFGEQEKIEEYLVGIAEEITKQFSANGMNVVFYTQFISEAKAALYFAKYVKLSEEGLGKIVKALLFYFPERDLDIGKRYVWLERLTKCNELPKSIISIIDDFLVLQAEKHIDQNYSEVSSNGLYSRDYGALIKHFEKNFISKRLSEITLCLTQDKQKQIDFLFKLLPLLSTNAKSHLLSFKSVENINDLMNGIRIGLIDEFTPEHEELIIEYLETRKVNYIVEKEKGIQTFSSNDYMSTFGIWYFLEEINNSKMEEFIGMDDQYDFFVDPENFDYKKFIPSWLKNYNDKLLGKIAGNKHMKHHVIEVLKERVKNSNDKRYLEILMNYFI"}, "B2": {"name": "Bacillus subtilis DSR2 H171A (catalytic mutant) (enzyme, UniProt P0DXN8 1-1005, looked up)", "chain": "B1 chain with H171A"}}, "key": {"cryo-EM structure [1]": {"molecular_target": "the molecule itself", "assay": "cryo-EM structure"}, "cryo-EM structure [2]": {"molecular_target": "the molecule itself", "assay": "cryo-EM structure", "remark": "listed apart in the source"}}, "note": "Changes are numbered by the printed parent chain. Names and notes keep the numbering of the source. Where two headings read alike, the source gives them in different places.", "data": [{"protein": "B1", "values": [{"measurement": "stoichiometry N", "setting": "cryo-EM structure [1]", "value": 4}]}, {"protein": "B2", "values": [{"measurement": "stoichiometry N", "setting": "cryo-EM structure [2]", "value": 4}]}]}
